Assays:
[1] = system: human peripheral blood mononuclear cells (PBMCs); assay: Human PBMC IL-2 production assay with plate-bound anti-CD3; assay type: cell-based; details: Donor 418; 0.3 ug/ml anti-CD3
Method: The ability of the variant CD80-Fc fusion proteins to promote IL-2 production in the context of anti-CD3 (to stimulate T cell receptor signaling) in human peripheral blood mononuclear cells (PBMCs) was tested. To bind anti-CD3 antibody on the plate, the anti-human-CD3 (clone HIT3a, BD Pharmingen) was incubated in 96-well plates at 4° C. overnight at 1 μg/ml unless otherwise noted. Human PBMCs were isolated from freshly collected human whole blood using Ficoll-Paque Plus. Human PBMCs (100,000 per well) were incubated with plate-bound anti-CD3 and the indicated concentrations of soluble CD80-Fc fusion protein in RPMI+10% HI-FBS, pen/strep, sodium pyruvate and non-essential amino acids. After 48 hours incubation, supernatants were collected and IL-2 measured by the Quantikine human IL-2 ELISA kit from R&D.
Additional CD80-Fc fusion proteins were tested in the same PBMC assay, at the concentration of anti-human-CD3 (clone HIT3a, BD Pharmingen) noted.

[2] = Thermal stability by Differential Scanning calorimetry (DSC); assay type: physicochemical; details: PBS
Method: There is a correlation between the thermal stability of a protein with the overall stability of the protein. Enhanced thermal stability often provides improved manufacturability and longer shelf life/stability. Thermal stability of variant CD80-Fc fusion proteins was assessed by Differential Scanning calorimetry (DSC). Variant CD80-Fc fusion proteins were analyzed using a MicroCal VP-DSC instrument. […] Tables 8-10 show the first thermal transition temperature (Tm1) of CD80-Fc fusion proteins and the enhanced thermal stability of variant CD80-Fc fusion proteins compared to CD80-WT-Fc fusion proteins.

[3] = target: CD28 expressed on Jurkat T cell line / human T cells (human) (UniProt P10747); assay: cell-based or functional assay
recombinant soluble CD28 = target: T1, recombinant soluble CD28 (Homo sapiens, UniProt P10747); assay: ELISA binding to recombinant soluble CD28; details: standard ELISA, FIG. 2A
T1 construct: Recombinant soluble CD28 and CTLA-4 proteins (from Creative BioMart, Product #CD28-3910H, CTLA-4-2232H) were immobilized; purchased Creative BioMart CD28-3910H
Method: Binding affinity of purified CD80-Fc fusion proteins (WT and variant) to recombinant soluble CD28 and CTLA-4 proteins was determined by standard ELISA. Recombinant soluble CD28 and CTLA-4 proteins (from Creative BioMart, Product #CD28-3910H, CTLA-4-2232H) were immobilized on 96 well microtiter plate (Thermo Scientific, Product #436110) in bicarbonate buffer at 4° C. overnight. After washing with 1×PBS containing 0.05% Tween 20 (wash buffer) plates were incubated with blocking buffer, 5% BSA in PBS, for 1 hour at room temperature. A serial dilution of CD80-Fc fusion proteins and human IgG1 isotype control antibody was prepared in blocking buffer, added into the plate and incubated at room temperature for 1 hour. Following washing 3× with wash buffer, 1:4000 dilution of HRP conjugated secondary anti-human IgG1 antibody (R&D Systems, MAB110-100) was added into the plate and incubated at room temperature for 1 hour. Plates were washed 3× with wash buffer and a 100 μl of LumiGlo (SeraCare, Product #5430-0040) reagent added into each well, incubated for 5 minutes at room temperature before reading luminescence signal in EnSight™ plate reader (PerkinElmer).

[4] = system: Jurkat-IL-2-Luc reporter cells; assay: Jurkat-IL-2-Luc and HCT116-CD64 reporter co-stimulation assay; assay type: cell-based, human
Text: A T cell co-stimulation assay was designed based on T Cell Activation Bioassay (IL-2) Kit from Promega (Product #J1631). The assay consisted of a genetically engineered Jurkat T cell line that expresses luciferase reporter driven by an IL-2 promoter. Co-engagement of T cell antigen receptor (TCR/CD3) and CD28 co-stimulatory receptor induces activation of T cells and downstream intracellular signaling pathways that in turn regulate the expression of luciferase reporter. As described above, HCT116 human colon cancer cell line was used for TCR engagement using the CDH3×CD3 bispecific and genetically engineered by lentiviral transduction to express human FCγRI.
A 96 well culture plate was seeded with HCT116 parental or HCT116-CD64 cells at 40,000 cells per well in 100 μL RPMI with 10% HI FBS and grown overnight at 37° C. in CO2 incubator. To each well, Jurkat reporter cells (100,000 per well) and 10 μL of the CDH3×CD3 bispecific (8 ng/ml final concentration) were added. 10 μL of serial dilutions of variant CD80-Fc fusion proteins with concentrations ranging from 0-1000 ng/ml (final concentrations per well) was added with appropriate controls. Assay plates were incubated for 6 hours at 37° C. in CO2 incubator for before harvesting culture supernatants and transferring to new plates. Following equilibration, 80 μL of BioGlo luminescence reagent (BioGlo Luciferase assay kit, Promega, G7940) was added into each well. Plates were incubated for 5 minutes before reading luminescence on the EnSight™ plate reader (PerkinElmer).
Jurkat is an immortalized human T cell line, and the Jurkat IL-2-reporter assay assesses the CD28-mediated signaling resulting in activation of the IL-2 promoter. The activity of CD80-Fc fusion proteins was measured using the co-culture HCT116-CD64-Jurkat IL-2 reporter assay, as described in Example 2, but using 20 ng/ml CDH3×CD3 bispecific.

[5] = system: NY-ESO1-TCR+ Jurkat reporter cells; assay: Jurkat-NYESO1-IL-2-Luc and A375-CD64 co-stimulation assay; assay type: cell-based, human
Text: Jurkat-IL-2-Luc reporter cells (Promega, Product #J1631) were engineered with T cell receptor, TCR (Wargo J. Cancer Immunol Immunother 2009; Zhao Y. J Immunol 2005, Li Y, Nat Biotechnol 2005) against HLA-A2 restricted NY-ESO1 (SLLMWITQC-SEQ ID NO: 19) epitope using lentiviral transduction system. Human melanoma cells A375, which express human HLA-A*0201, were transduced with lentiviral vector containing endogenous codon for NY-ESO1 gene (Refseq accession NM_001327.2, CCDS14758.1). Upon expression, the construct underwent proteolytic cleavage at the ubiquitin/epitope junction, thus generating free, cytoplasmic epitope, which can be translocated into the endoplasmic reticulum and loaded onto class I HLA. A375-NY-ESO1 positive cells were treated with IFNγ to induce HLA expression and NY-ESO1 antigen presentation. The HLA expression and the antigen presentation was confirmed by Western Blot. The NY-ESO1^+-A375 cells were further engineered to express human FCγRI (CD64, GenBank:AAA58414.1, RefSeq:P12314.1) for cell surface assembly and displaying of CD80-Fc fusion proteins. The expression of FCγRI was confirmed by flow cytometry analysis.
A 96 well culture plate was seeded with NY-ESO1^+-A375 cells or NY-ESO1^+/FCγRI^+-A375 at 40,000 cells per well in 100 µL growth media (RPMI, 10% Heat Inactivated FBS, 200 μg/mL Hygromycin B, 1 mM sodium pyruvate, 0.1 mM MEM NEAA, 1 μg/mL puromycin) containing 10 ng/ml of human IFNγ (R&D Systems, product #285-IF) to induce MHC-A2 expression and grown overnight at 37° C. in CO2 incubator. To each well, NY-ESO1-TCR^+ Jurkat reporter cells, 100,000 (in 20 μL media), were added. 20 μL of serial dilutions of variant CD80-Fc fusion proteins with concentrations ranging from 0-1000 ng/ml (final concentrations per well) was added with appropriate controls. Assay plates were incubated for 6 hours at 37° C. in CO2 incubator. Following equilibration, 80 μL BioGlo luminescence reagent (BioGlo Luciferase assay kit, Promega, G7940) was added into each well. Plates were incubated for 5 minutes before reading luminescence on the EnSight™ plate reader (PerkinElmer).

[6] = AC-SINS self-interaction assay; assay type: physicochemical; details: Table 6
Method: Variant CD80-Fc fusion proteins were assessed by measuring non-specific binding using a DNA- and insulin-binding ELISA (Avery et al., MAbs. 2018 February/March; 10(2): 244-255) and for self-interaction in an AC-SINS assay (affinity-capture self-interaction nanoparticle spectroscopy; Liu et al., 2014, mAbs 6:483-92). DNA- and insulin-binding scores were calculated as the signal ratio of the ELISA signal of the CD80-Fc fusion protein at 10 μg/ml to the ELISA signal in the absence of the Fc-fusion protein (buffer only). For the AC-SINS assay, proteins are captured by anti-human Fc antibodies coated on gold nanoparticles. […] The score ranges obtained from these in vitro assays correlate well with in vivo clearance using huFcRn transgenic (Tg32) mouse. Therapeutic proteins with high scores are at high risk for rapid clearance and unfavorable PK and therapeutics that score low are at low risk and favorable PK.

[7] = system: EMT6 murine breast cancer cells; assay: EMT6 breast cancer model, combination with talazoparib; assay type: in vivo, mouse
Method: EMT6murine breast cancer cells (3×10^5) were orthotopically implanted in the mammary fat pad of female Balb/c mice. When tumors reached ˜90 mm^3 (day 5 after implantation), mice were randomized and dosed with PBS vehicle control, CD80-K89Q-D90Q-E23C-A26C-Fc (0.1 or 1 mg/kg), and/or 0.33 mg/kg talazoparib (Tala). CD80-D90Q-Fc was dosed on Days 0 and 3, talazoparib was dosed daily. Tumor volume was determined by caliper measurements obtained in 2 dimensions and calculated as width^2×length/2. Error bars are depicted as ±SEM

CD80-V22F-T28V-T57V-Fc: non-cysteine stabilized variant CD80-Fc fusion protein
EC50 [1]: 5.13 nM | DSC Tm1 [2]: 64 °C

CD80-V11L-V22F-Fc (Fc fusion)
IL-2 EC50, human PBMC assay, donor 418, anti-CD3 0.3 ug/ml [3]: 4.95 nM

CD80-K89Q-Fc: variant CD80 ECD (K89Q) fused to human IgG1 Fc
binding affinity to CD28 compared to WT CD80-Fc (recombinant soluble CD28): increased binding affinity to CD28

CD80-V11L-V22F-Fc: non-cysteine stabilized variant CD80-Fc fusion protein
EC50 [1]: 4.95 nM | DSC Tm1 [2]: 61.52 ± 0.12 °C

CD80-V11L-T62Y-Fc: non-cysteine stabilized variant CD80-Fc fusion protein
EC50 [1]: 3.34 nM | DSC Tm1 [2]: 58.76 ± 0.14 °C

CD80-K89D-D90Q-Fc: variant CD80 ECD (K89D, D90Q) fused to human IgG1 Fc
enhanced co-stimulation compared to CD80-WT-Fc [4]: about 4 fold | binding affinity to CD28 compared to WT CD80-Fc (recombinant soluble CD28): increased binding affinity to CD28 | enhanced co-stimulation compared to CD80-WT-Fc [5]: about 8 fold

CD80-K89D-D90K-Fc: variant CD80 ECD (K89D, D90K) fused to human IgG1 Fc
enhanced co-stimulation compared to CD80-WT-Fc [4]: ~8 fold | binding affinity to CD28 compared to WT CD80-Fc (recombinant soluble CD28): increased binding affinity to CD28

CD80-K89Q-D90Q-V22C-G45C-Fc: disulfide stabilized variant CD80-Fc fusion protein (K89Q, D90Q, V22C, G45C)
AC-SINS Score [6]: −1 | DSC Tm1 [2]: 68.67 ± 0.22 °C

CD80-K89Q-D90Q-161C-Fc: disulfide stabilized variant CD80-Fc fusion protein (K89Q, D90Q, I61C)
AC-SINS Score [6]: −1 | DSC Tm1 [2]: 64.10 ± 0.17 °C

CD80-T28V-T57V-Fc (Fc fusion)
IL-2 EC50, human PBMC assay, donor 418, anti-CD3 0.3 ug/ml [3]: 2.64 nM

CD80-K89D-Fc: variant CD80 ECD (K89D) fused to human IgG1 Fc
binding affinity to CD28 compared to WT CD80-Fc (recombinant soluble CD28): increased binding affinity to CD28

CD80-V22F-T28V-T57V-Fc (Fc fusion)
IL-2 EC50, human PBMC assay, donor 418, anti-CD3 0.3 ug/ml [3]: 5.13 nM

CD80-D90K-Fc: variant CD80 ECD (D90K) fused to human IgG1 Fc
enhanced co-stimulation compared to CD80-WT-Fc [4]: ~8 fold | binding affinity to CD28 compared to WT CD80-Fc (recombinant soluble CD28): increased binding affinity to CD28 | enhanced co-stimulation compared to CD80-WT-Fc [5]: about 4 fold

Cn1ncnc1[C@H]1c2n[nH]c(=O)c3cc(F)cc(c23)N[C@@H]1c1ccc(F)cc1 [Talazoparib, (8S,9R)-5-fluoro-8-(4-fluorophenyl)-9-(1-methyl-1H-1,2,4-triazol-5-yl)-8,9-dihydro-2H-pyrido[4,3,2-de]phthalazin-3(7H)-one, reference compound]
% tumor growth inhibition ([7]; Day 20, Talazoparib 0.33 mg/kg alone): 10.9% | Day 20 tumor volume ([7]; Talazoparib 0.33 mg/kg daily alone): 1750.1 mm^3

CD80-D90Q-E23C-A26C-Fc (Fc fusion)
IL-2 EC50, human PBMC assay with plate-bound anti-CD3 (average of 5 donors) [3]: 24.2 nM

CD80-D90N-Fc: variant CD80 ECD (D90N) fused to human IgG1 Fc
enhanced co-stimulation compared to CD80-WT-Fc [5]: about 4 fold

CD80-V11L-T62Y-Fc (Fc fusion)
IL-2 EC50, human PBMC assay, donor 418, anti-CD3 0.3 ug/ml [3]: 3.34 nM

CD80-K89D-D90N-Fc: variant CD80 ECD (K89D, D90N) fused to human IgG1 Fc
enhanced co-stimulation compared to CD80-WT-Fc [4]: about 4 fold | binding affinity to CD28 compared to WT CD80-Fc (recombinant soluble CD28): increased binding affinity to CD28 | enhanced co-stimulation compared to CD80-WT-Fc [5]: about 8 fold

Reference: patent US20240209061A1, “FUSION PROTEINS AND USES THEREOF” (Pfizer Inc., priority 2020, published 2024)
